Laboratory results as given in PMC11208146, “Molecular basis for transposase activation by a dedicated AAA+ ATPase”.

B1: random 60-mer target duplex (dsDNA)
DNA 1: TGCTTGCGATGATCCGACGTGTTAGCCACGCTGACTAGTTATGCCATGCCTCCCTTCAGG
DNA 2: CCTGAAGGGAGGCATGGCATAACTAGTCAGCGTGGCTAACACGTCGGATCATCGCAAGCA
B2: IS21 strand-transfer complex (STC) DNA (dsDNA)
DNA 1: CCTTCTGGGGAATTTTAAACCGGCGATTTTGGGGAAAAAATAATCGGCCTTGACAGCTGCACAGTAAGAGAATTATGCAGTGCTGCCATAACCATGAGTGATAACACTGCGGCCAACTTACTTCTGACAA
DNA 2: ATTCATGTCAAGGCCGATTATTTTTTCCCCAAAATCGCCGGTTTAAAATTCCCCAGAAGG
DNA 3: TTGTCAGAAGTAAGTTGGCCGCAGTGTTATCACTCATGGTTATGGCAGCACTGCATAATTCTCTTACTGT

What was measured:
[1] = target: IstB (Geobacillus stearothermophilus (IS5376, …, UniProt Q45619 1-251)); assay: cryo-EM structure (3.2 A); size-exclusion co-elution; 1 mM ATP, 5 mM MgCl2; IstB-DNA: 20 mM HEPES pH 7.5, 150 mM NaCl, 5 mM MgCl2, 5% glycerol, 1 mM ATP, 1 mM DTT; dialysis at 4 C, SEC at room temperature; IstB:DNA 6.5:1. STC complex buffer not in the material; details: protein: recombinant; tags: His6-MBP, cleaved with PreScission protease; chain copies: 10; blunt
[2] = target: IstA;IstB (Geobacillus stearothermophilus (IS5376, …, UniProt Q45618;Q45619 1-400;1-251, |)); assay: negative-stain EM 2D averages; wild-type IstB; IstB-DNA: 20 mM HEPES pH 7.5, 150 mM NaCl, 5 mM MgCl2, 5% glycerol, 1 mM ATP, 1 mM DTT; dialysis at 4 C, SEC at room temperature; IstB:DNA 6.5:1. STC complex buffer not in the material; details: protein: recombinant;recombinant; tags: C-terminal MBP-His6, cleaved with TEV protease;His6-MBP, cleaved with PreScission protease; chain copies: 4;20; 5' overhang 5 nt on non-transferred strand; half-substrates of 3 strands, 2 copies pair via the insertion site (5 bp spacing)
[3] = target: IstA;IstB E167Q (Walker B mutant) (Geobacillus stearothermophilus (IS5376, …, UniProt Q45618;Q45619 1-400;1-251, |E167Q)); assay: cryo-EM structure (3.6 A; core 3.2 A); ATP, with ADP in IstA-bound IstB subunits; Mg2+; IstB-DNA: 20 mM HEPES pH 7.5, 150 mM NaCl, 5 mM MgCl2, 5% glycerol, 1 mM ATP, 1 mM DTT; dialysis at 4 C, SEC at room temperature; IstB:DNA 6.5:1. STC complex buffer not in the material; details: protein: recombinant;recombinant; tags: C-terminal MBP-His6, cleaved with TEV protease;His6-MBP, cleaved with PreScission protease; chain copies: 4;20; 5' overhang 5 nt on non-transferred strand; half-substrates of 3 strands, 2 copies pair via the insertion site (5 bp spacing)

Binder	binding result [1]	binding result [2]	binding result [3]
B1	binds	–	–
B2	–	binds	binds
